The values below come from US20170058008A1 (SYNGENTA PARTICIPATIONS, published 2017).

Assay [1] deals with ATP synthase β from S. frugiperda (native) (S. frugiperda). Nature of the assay: cell-based or functional assay.
For assay [2], the target named is ATP synthase α from S. frugiperda (native) (S. frugiperda). Nature of the assay: cell-based or functional assay.
In assay [3] the target is Hsc70 from S. frugiperda (native) (S. frugiperda). Nature of the assay: cell-based or functional assay.
Assay [4] concerns the target cell surface displayed serpin from M. sexta (yeast display, pYD1) (M. sexta). Nature of the assay: biopanning of a yeast surface-displayed M. sexta cDNA library with biotinylated trypsinized Vip3A; none out of twenty clones in the control without bVip3A/T.
The target in assay [5] is ATP synthase α + β of Sf9 cells (native, both silenced together) (S. frugiperda). Nature of the assay: cell-based or functional assay.
Assay [6] concerns the target Hsc70, cadherin from M. sexta, and aminopeptidase-N (APN) from M. sexta, co-expressed in Drosophila S2 cells (S. frugiperda; M. sexta). As to the kind of experiment: cell-based or functional assay.
Assay [7] addresses Hsc70 and serpin, co-expressed in Drosophila S2 cells (S. frugiperda; M. sexta) (UniProt Q9U639). Nature of the assay: cell-based or functional assay.
In the next assay the target is biotin labeled Cry1Ab (UniProt P0A370 29-607, biotin labeled (sites not given)). As to the kind of experiment: Far-Western blot, V5-enriched protein on PVDF probed with biotin labeled Cry1Ab.
The target of a further assay is T1, V5-tagged Cry1Ab (UniProt P0A370 29-607, limits assumed).
T1 construct: not shown: V5 tag
As to the kind of experiment: fluorescent confocal microscopy, co-localization on transfected Sf9 cells.

Procedure for biotin labeled Cry1Ab: Sixty hours after transfection, the cells were collected by centrifugation, lysed with detergent buffer, and the proteins were separated from the remaining cellular extracts by centrifugation. Extracted proteins from the supernatant were then incubated with Anti-V5 conjugated beads, and the V5 tagged Vip3 interacting candidates were partially purified and enriched by elution from the beads with SDS loading buffer. The proteins were separated by SDS-PAGE and transferred onto PVDF membrane for Far-Western blot analysis. The membrane was incubated with biotin-labeled Vip3A and Streptavidin-HRP followed by enhanced chemiluminescence (ECL) detection.

Consider Vip3A, for which, in assay [1], the Mortality (%) Day 2, FAW larvae pretreated with dsRNA for the target, Vip3A at 100 ng/cm^2 was 0%; the Mortality (%) Day 6, FAW larvae pretreated with dsRNA for the target, Vip3A at 100 ng/cm^2 came out at 15.4%; the Mortality (%) Day 10, FAW larvae pretreated with dsRNA for the target, Vip3A at 100 ng/cm^2 is 53.9%. Also, in assay [2], the Mortality (%) Day 2, FAW larvae pretreated with dsRNA for the target, Vip3A at 100 ng/cm^2 was determined as 12.5%; the Mortality (%) Day 6, FAW larvae pretreated with dsRNA for the target, Vip3A at 100 ng/cm^2 was determined as 12.5%; the Mortality (%) Day 10, FAW larvae pretreated with dsRNA for the target, Vip3A at 100 ng/cm^2 was 37.5%. For the same molecule, in assay [3], the Mortality (%) Day 2, FAW larvae pretreated with dsRNA for the target, Vip3A at 100 ng/cm^2 was found to be 0%; the Mortality (%) Day 6, FAW larvae pretreated with dsRNA for the target, Vip3A at 100 ng/cm^2 came out at 0%; the Mortality (%) Day 10, FAW larvae pretreated with dsRNA for the target, Vip3A at 100 ng/cm^2 was determined as 6.25%.
In [4], trypsinized Vip3A yielded a share of sequenced clones carrying the serpin gene after seven rounds of selection of 45%. In assay [1], this molecule showed a percent reduction of cell viability, Sf9 cells with the target silenced by dsRNA, 200 nM trypsinized Vip3A (GFP dsRNA control 30.055) of 22.7%. The percent reduction of cell viability, Sf9 cells with the target silenced by dsRNA, 200 nM trypsinized Vip3A (GFP dsRNA control 30.055) in assay [5] was determined as 0.986%. Also, the percent reduction of cell viability, Sf9 cells with the target silenced by dsRNA, 200 nM trypsinized Vip3A (GFP dsRNA control 30.055) in [2] amounted to 0.99%. Further, in [6], the % of dead cells, co-transfected S2 cells, 0 nM Vip3A stood at 4%; the % of dead cells, co-transfected S2 cells, 25 nM Vip3A was determined as 3%; the % of dead cells, co-transfected S2 cells, 50 nM Vip3A came out at 7%; the % of dead cells, co-transfected S2 cells, 100 nM Vip3A came to 6%. In [6], the % of dead cells, co-transfected S2 cells, 200 nM Vip3A came to 9%; the % of dead cells, co-transfected S2 cells, 400 nM Vip3A amounted to 10%; the % of dead cells, co-transfected S2 cells, 800 nM Vip3A was found to be 8%. In [7], this molecule had a % of dead cells, co-transfected S2 cells, 0 nM Vip3A of 1.5%; a % of dead cells, co-transfected S2 cells, 25 nM Vip3A of 6%; a % of dead cells, co-transfected S2 cells, 50 nM Vip3A of 17%; a % of dead cells, co-transfected S2 cells, 100 nM Vip3A of 34%. In assay [7], the % of dead cells, co-transfected S2 cells, 200 nM Vip3A stood at 64%; the % of dead cells, co-transfected S2 cells, 400 nM Vip3A was determined as 81%; the % of dead cells, co-transfected S2 cells, 800 nM Vip3A was determined as 96%. Further, the percent reduction of cell viability, Sf9 cells with the target silenced by dsRNA, 200 nM trypsinized Vip3A (GFP dsRNA control 30.055) in [3] was 17.1%.

B1: ATP synthase α from S. frugiperda, V5/6xHis-tagged (pIZT/V5-His) (other, not shown: small tags and cut ends)
chain: MSLISARIAGSVARRLPNAASQVSKVAGVAAPAVAVASRNFHVSPTQKAAEISTILEERILGAAPKADLEETGRVLSIGDGIARVYGLKNIQAEEMVEFSSGLKGMALNLEPDNVGVVVFGNDKLIKEGDIVKRTGAIVDVPVGEQLLGRVVDALGNAIDGKGPIDTKSRMRVGIKAPGIIPRVSVREPMQTGIKAVDSLVPIGRGQRELIIGDRQTGKTALAIDTIINQQRFNKGQDEKKKLYCIYVAIGQKRSTVAQIVKRLTDAGAINYTIIVSRTASDAAPLQYLAPYSGCAMGEFFRDNGKHALIIYDDLSKQAVAYRQMSLLLRRPPGREAYPGDVFYLHSRLLERAAKMSDKMGGGSLTALPVIETQAGDVSAYIPTNVISITDGQIFLETELFYKGIRPAINVGLSVSRVGSAAQTKAMKQVAGSMKLELAQYREVAAFAQFGSDLDAATQQLLNRGMRLTELLKQGQYVPMAIEEQVAIIYCGVRGHLDKLDPSKITGFEKEFTQHIKTSHQGLLATIAKDGQITPESDAALKKIVTDFLATFTQSQ
notes: Expressed in Sf9 cells
On to B1, for which the binding result in the assay with biotin labeled Cry1Ab was “no binding”; in the assay with V5-tagged Cry1Ab, “no binding (tested: 200 nM)”.
